Among the data in paper PMC2832797 (Biochemistry, 2010) are Kd values, retold here.

For the assay, the target named is N-terminal His-tagged ubiquitin (15N-labelled) (UniProt P0CG48 1-76, 15N-labelled). The assay can be described thus: NMR titration.

B1: N-terminal His-tagged human alpha4 (amino acid residues 1-222) (domain or fragment, UniProt P78318 1-222, looked up)
chain: MAAEDELQLPRLPELFETGRQLLDEVEVATEPAGSRIVQEKVFKGLDLLEKAAEMLSQLDLFSRNEDLEEIASTDLKYLLVPAFQGALTMKQVNPSKRLDHLQRAREHFINYLTQCHCYHVAEFELPKTMNNSAENHTANSSMAYPSLVAMASQRQAKIQRYKQKKELEHRLSAMKSAVESGQADDERVREYYLLHLQRWIDISLEEIESIDQEIKILRERD
On to B1, for which the Kd (usually the free concentration of one partner at which half of the binding sites on the other are occupied at equilibrium, for simple one-to-one binding) was greater than 100 µM.
